In patent publication US6586946B2, “System and method for detecting and identifying molecular events in a test sample using a resonant test structure” (Signature BioScience, Inc., priority 2000, dated 2003):

B1: turkey lysozyme (protein, UniProt P00703 19-147, looked up)
Lysozyme C: KVYGRCELAAAMKRLGLDNYRGYSLGNWVCAAKFESNFNTHATNRNTDGSTDYGILQINSRWWCNDGRTPGSKNLCNIPCSALLSSDITASVNCAKKIASGGNGMNAWVAWRNRCKGTDVHAWIRGCRL
notes: test protein

Assay: Resonant frequency shift of coaxial resonator coupled to protein solution versus PBS buffer (S11 return loss)
Type: physicochemical
Settings: protein solution in PTFE tube; reference PBS pH 7.4; input test signal approximately 1 GHz, 100 KHz band
Method: Using the systems and methods of the present invention, several experiments were performed to detect and identify molecular events in a solution. […] The vector network analyzer used was model number HP 8714 manufactured by Agilent Technologies, Inc. (Palo Alto, Calif.) The computer is an HP Vectra computer (Hewlett Packard Company, Palo Alto, Calif.) executing a graphically user interface (LabView® platform) to control the operation of the network analyzer and to display the resulting data. The coaxial resonator 122 illustrated in FIG. 3A was used in the experiments to illuminate the reference and test samples. […] The PTFE tube 470 is used to transport the reference and test samples to the detection region of the resonant test assembly and measures 0.031″ I.D., 0.063″ O.D., wall 0.016″ in cross-section dimensions.
The proteins used for the experiment included bovine serum albumin (BSA), ribonuclease (rnase), urease, myoglobin, fibrinogen (type I-S, bovine), chicken lysozyme (egg white), and turkey lysozyme. Phosphate buffer solution (PBS, pH 7.4) was purchased from Sigma (St. Louis, Mo.) and used as the reference sample.
In the reference measurement, PBS buffer was introduced into the tube and transported to the detection region, and a S11 (return loss) measurement of the resonator was taken. In the illustrated example, the measurement was taken at 1 GHz over a 100 KHz band. From the measured S11 response, the resonant frequency fres and Q-factor of the resonator were computed and stored, as described above.
Next, each of the aforementioned protein solutions were introduced into the tube and transported to the detection region. The resonator's S11 response was measured (over the same frequency range as above) and the corresponding resonant frequency fres and Q-factor parameters derived therefrom. Subsequently, the difference in the resonant frequencies Δfres is computed. This quantity was subsequently plotted versus the resonator's measured Q-factor when electromagnetically coupled to the test sample. FIG. 6 illustrates this mapping.

Row | Molecule | change in resonant frequency of the resonator (relative to the PBS buffer)
1 | chicken lysozyme | ~6.5 KHz
2 | fibrinogen | approximately 1.75 KHz
3 | myoglobin | ~4 KHz
4 | urease | ~2 KHz
5 | B1 | ~6.75 KHz
